Source: paper PMC12901202

Molecular target: SARS-CoV-2 JN.1 RBD, biotinylated (SARS-CoV-2) (UniProt P0DTC2)
Test: BLI; […]; 300 s association, 300 s dissociation; 10x kinetics buffer; […]; global fit, 1:1 model; […]

Q: What does the source list for “TRI2-2 homotrimeric miniprotein inhibitor (designed binder)”?
A: Kd: 6.19 nM; koff: 0.00175 s⁻¹; kon: 282000 M⁻¹ s⁻¹
